From IntAct's records for PubMed 31515488

B1: Angiomotin (Homo sapiens), Q4VCS5 (parent)
chain: MRNSEEQPSGGTTVLQRLLQEQLRYGNPSENRSLLAIHQQATGNGPPFPSGSGNPGPQSDVLSPQDHHQQLVAHAARQEPQGQEIQSENLIMEKQLSPRMQNNEELPTYEEAKVQSQYFRGQQHASVGAAFYVTGVTNQKMRTEGRPSVQRLNPGKMHQDEGLRDLKQGHVRSLSERLMQMSLATSGVKAHPPVTSAPLSPPQPNDLYKNPTSSSEFYKAQGPLPNQHSLKGMEHRGPPPEYPFKGMPPQSVVCKPQEPGHFYSEHRLNQPGRTEGQLMRYQHPPEYGAARPAQDISLPLSARNSQPHSPTSSLTSGGSLPLLQSPPSTRLSPARHPLVPNQGDHSAHLPRPQQHFLPNQAHQGDHYRLSQPGLSQQQQQQQQQHHHHHHHQQQQQQQPQQQPGEAYSAMPRAQPSSASYQPVPADPFAIVSRAQQMVEILSDENRNLRQELEGCYEKVARLQKVETEIQRVSEAYENLVKSSSKREALEKAMRNKLEGEIRRMHDFNRDLRERLETANKQLAEKEYEGSEDTRKTISQLFAKNKESQREKEKLEAELATARSTNEDQRRHIEIRDQALSNAQAKVVKLEEELKKKQVYVDKVEKMQQALVQLQAACEKREQLEHRLRTRLERELESLRIQQRQGNCQPTNVSEYNAAALMELLREKEERILALEADMTKWEQKYLEENVMRHFALDAAATVAAQRDTTVISHSPNTSYDTALEARIQKEEEEILMANKRCLDMEGRIKTLHAQIIEKDAMIKVLQQRSRKEPSKTEQLSCMRPAKSLMSISNAGSGLLSHSSTLTGSPIMEEKRDDKSWKGSLGILLGGDYRAEYVPSTPSPVPPSTPLLSAHSKTGSRDCSTQTERGTESNKTAAVAPISVPAPVAAAATAAAITATAATITTTMVAAAPVAVAAAAAPAAAAAPSPATAAATAAAVSPAAAGQIPAAASVASAAAVAPSAAAAAAVQVAPAAPAPVPAPALVPVPAPAAAQASAPAQTQAPTSAPAVAPTPAPTPTPAVAQAEVPASPATGPGPHRLSIPSLTCNPDKTDGPVFHSNTLERKTPIQILGQEPDAEMVEYLI
partner: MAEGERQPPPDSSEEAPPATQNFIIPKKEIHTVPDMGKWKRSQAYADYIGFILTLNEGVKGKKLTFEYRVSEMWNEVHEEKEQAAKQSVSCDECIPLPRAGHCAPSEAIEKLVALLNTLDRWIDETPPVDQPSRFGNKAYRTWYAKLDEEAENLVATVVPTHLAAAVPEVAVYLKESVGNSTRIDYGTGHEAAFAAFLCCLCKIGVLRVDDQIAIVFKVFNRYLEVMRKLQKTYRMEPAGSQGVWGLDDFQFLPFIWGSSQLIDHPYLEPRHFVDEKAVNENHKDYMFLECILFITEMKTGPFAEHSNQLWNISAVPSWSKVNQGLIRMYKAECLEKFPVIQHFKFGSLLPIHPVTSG
B2: Notch homolog 2 N-terminal-like protein A (Homo sapiens), Q7Z3S9 (parent)
chain: MCVTYHNGTGYCKCPEGFLGEYCQHRDPCEKNRCQNGGTCVAQAMLGKATCRCASGFTGEDCQYSTSHPCFVSRPCLNGGTCHMLSRDTYECTCQVGFTGKECQWTDACLSHPCANGSTCTTVANQFSCKCLTGFTGQKCETDVNECDIPGHCQHGGTCLNLPGSYQCQCLQGFTGQYCDSLYVPCAPSPCVNGGTCRQTGDFTFECNCLPETVRRGTELWERDREVWNGKEHDEN
partner: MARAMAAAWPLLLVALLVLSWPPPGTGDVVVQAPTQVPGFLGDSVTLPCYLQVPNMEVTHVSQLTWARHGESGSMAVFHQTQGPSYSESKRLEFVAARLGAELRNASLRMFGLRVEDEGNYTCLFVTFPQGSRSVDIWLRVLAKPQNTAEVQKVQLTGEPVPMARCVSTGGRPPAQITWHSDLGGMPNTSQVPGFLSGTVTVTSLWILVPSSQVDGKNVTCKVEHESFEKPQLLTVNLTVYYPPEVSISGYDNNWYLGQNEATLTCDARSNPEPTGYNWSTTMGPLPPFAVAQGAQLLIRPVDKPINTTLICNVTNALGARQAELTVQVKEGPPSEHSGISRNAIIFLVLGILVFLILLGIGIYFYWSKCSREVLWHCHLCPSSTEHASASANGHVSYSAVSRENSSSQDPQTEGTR
B3: Isoform 1 of Mothers against decapentaplegic homolog 3 (Homo sapiens), P84022-1 (parent)
chain: MSSILPFTPPIVKRLLGWKKGEQNGQEEKWCEKAVKSLVKKLKKTGQLDELEKAITTQNVNTKCITIPRSLDGRLQVSHRKGLPHVIYCRLWRWPDLHSHHELRAMELCEFAFNMKKDEVCVNPYHYQRVETPVLPPVLVPRHTEIPAEFPPLDDYSHSIPENTNFPAGIEPQSNIPETPPPGYLSEDGETSDHQMNHSMDAGSPNLSPNPMSPAHNNLDLQPVTYCEPAFWCSISYYELNQRVGETFHASQPSMTVDGFTDPSNSERFCLGLLSNVNRNAAVELTRRHIGRGVRLYYIGGEVFAECLSDSAIFVQSPNCNQRYGWHPATVCKIPPGCNLKIFNNQEFAALLAQSVNQGFEAVYQLTRMCTIRMSFVKGWGAEYRRQTVTSTPCWIELHLNGPLQWLDKVLTQMGSPSIRCSSVS
partner: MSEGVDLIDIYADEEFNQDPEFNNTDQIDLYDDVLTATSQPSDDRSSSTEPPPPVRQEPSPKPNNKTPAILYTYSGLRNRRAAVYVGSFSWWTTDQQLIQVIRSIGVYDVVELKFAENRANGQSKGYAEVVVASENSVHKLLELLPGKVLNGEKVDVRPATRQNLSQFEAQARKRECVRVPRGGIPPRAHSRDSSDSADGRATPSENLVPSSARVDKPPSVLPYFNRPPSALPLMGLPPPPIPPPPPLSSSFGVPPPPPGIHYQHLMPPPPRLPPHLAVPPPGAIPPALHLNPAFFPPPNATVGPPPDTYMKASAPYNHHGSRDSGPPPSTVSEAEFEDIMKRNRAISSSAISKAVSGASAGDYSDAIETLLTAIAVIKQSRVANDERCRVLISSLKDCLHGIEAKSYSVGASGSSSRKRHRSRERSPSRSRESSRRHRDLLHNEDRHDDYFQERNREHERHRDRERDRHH
B4: Charged multivesicular body protein 4a (Homo sapiens), Q9BY43 (parent)
chain: MSGLGRLFGKGKKEKGPTPEEAIQKLKETEKILIKKQEFLEQKIQQELQTAKKYGTKNKRAALQALRRKKRFEQQLAQTDGTLSTLEFQREAIENATTNAEVLRTMELAAQSMKKAYQDMDIDKVDELMTDITEQQEVAQQISDAISRPMGFGDDVDEDELLEELEELEQEELAQELLNVGDKEEEPSVKLPSVPSTHLPAGPAPKVDEDEEALKQLAEWVS
partner: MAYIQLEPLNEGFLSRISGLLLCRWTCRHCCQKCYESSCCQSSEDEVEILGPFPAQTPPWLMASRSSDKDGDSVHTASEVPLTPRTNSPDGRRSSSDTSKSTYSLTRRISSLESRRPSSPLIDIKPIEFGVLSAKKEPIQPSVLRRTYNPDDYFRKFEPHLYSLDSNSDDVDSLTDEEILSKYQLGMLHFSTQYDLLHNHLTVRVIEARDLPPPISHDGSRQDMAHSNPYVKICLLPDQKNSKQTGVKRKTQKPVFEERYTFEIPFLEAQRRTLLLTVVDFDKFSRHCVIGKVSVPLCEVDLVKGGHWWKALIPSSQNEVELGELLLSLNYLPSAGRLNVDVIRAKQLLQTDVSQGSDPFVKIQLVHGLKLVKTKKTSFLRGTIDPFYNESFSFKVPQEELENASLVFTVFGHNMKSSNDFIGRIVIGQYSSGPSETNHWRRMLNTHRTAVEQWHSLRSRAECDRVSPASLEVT
B5: Protein BTG1 (Homo sapiens), P62324 (parent)
chain: MHPFYTRAATMIGEIAAAVSFISKFLRTKGLTSERQLQTFSQSLQELLAEHYKHHWFPEKPCKGSGYRCIRINHKMDPLIGQAAQRIGLSSQELFRLLPSELTLWVDPYEVSYRIGEDGSICVLYEASPAGGSTQNSTNVQMVDSRISCKEELLLGRTSPSKNYNMMTVSG
B6: Katanin p60 ATPase-containing subunit A-like 1 (Homo sapiens), Q9BW62 (parent)
chain: MNLAEICDNAKKGREYALLGNYDSSMVYYQGVMQQIQRHCQSVRDPAIKGKWQQVRQELLEEYEQVKSIVSTLESFKIDKPPDFPVSCQDEPFRDPAVWPPPVPAEHRAPPQIRRPNREVRPLRKEMAGVGARGPVGRAHPISKSEKPSTSRDKDYRARGRDDKGRKNMQDGASDGEMPKFDGAGYDKDLVEALERDIVSRNPSIHWDDIADLEEAKKLLREAVVLPMWMPDFFKGIRRPWKGVLMVGPPGTGKTMLAKAVATECGTTFFNVSSSTLTSKYRGESEKLVRLLFEMARFYAPTTIFIDEIDSICSRRGTSDEHEASRRVKSELLIQMDGVGGALENDDPSKMVMVLAATNFPWDIDEALRRRLEKRIYIPLPTAKGRAELLKINLREVELDPDIQLEDIAEKIEGYSGADITNVCRDASLMAMRRRINGLSPEEIRALSKEELQMPVTKGDFELALKKIAKSVSAADLEKYEKWMVEFGSA
partner: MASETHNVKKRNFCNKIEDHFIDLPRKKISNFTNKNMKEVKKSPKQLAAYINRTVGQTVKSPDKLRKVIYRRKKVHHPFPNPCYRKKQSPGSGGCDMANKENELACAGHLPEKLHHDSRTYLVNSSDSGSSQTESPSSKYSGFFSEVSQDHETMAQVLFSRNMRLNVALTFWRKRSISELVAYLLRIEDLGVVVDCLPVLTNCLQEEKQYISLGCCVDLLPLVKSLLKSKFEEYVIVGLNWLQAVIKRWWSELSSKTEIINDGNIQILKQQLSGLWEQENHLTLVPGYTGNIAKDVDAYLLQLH
B7: Dynein light chain 2, cytoplasmic (Homo sapiens), Q96FJ2 (parent)
chain: MSDRKAVIKNADMSEDMQQDAVDCATQAMEKYNIEKDIAAYIKKEFDKKYNPTWHCIVGRNFGSYVTHETKHFIYFYLGQVAILLFKSG
partner: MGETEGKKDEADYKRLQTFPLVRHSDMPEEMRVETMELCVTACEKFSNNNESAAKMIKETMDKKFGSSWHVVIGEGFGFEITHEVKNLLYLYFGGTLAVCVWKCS
B8: Glycolipid transfer protein (Homo sapiens), Q9NZD2 (parent)
chain: MALLAEHLLKPLPADKQIETGPFLEAVSHLPPFFDCLGSPVFTPIKADISGNITKIKAVYDTNPAKFRTLQNILEVEKEMYGAEWPKVGATLALMWLKRGLRFIQVFLQSICDGERDENHPNLIRVNATKAYEMALKKYHGWIVQKIFQAALYAAPYKSDFLKALSKGQNVTEEECLEKIRLFLVNYTATIDVIYEMYTQMNAELNYKV
partner: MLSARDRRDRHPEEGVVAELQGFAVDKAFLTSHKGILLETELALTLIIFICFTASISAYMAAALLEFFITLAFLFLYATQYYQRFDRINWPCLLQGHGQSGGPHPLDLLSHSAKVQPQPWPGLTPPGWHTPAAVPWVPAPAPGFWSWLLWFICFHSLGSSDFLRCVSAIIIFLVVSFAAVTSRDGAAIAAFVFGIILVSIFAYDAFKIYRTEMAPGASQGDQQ

Variants of: B1
Details: with ptpa_human PTPA

Variant | effect of a mutation on the interaction
T899A | with no effect

Variants of: B2
Details: with pvr_human PVR

Variant | effect of a mutation on the interaction
A115T | with no effect
R74Q | with no effect

Variants of: B3
Details: with cpsf7_human CPSF7, Q8N684

Variant | effect of a mutation on the interaction
P393L | disrupting interaction strength

Variants of: B4
Details: with syt17_human SYT17, Q9BSW7

Variant | effect of a mutation on the interaction
G153R | with no effect

Variants of: B5
Details: with cnot8_human CNOT8, Q9UFF9
Sequence of cnot8_human CNOT8, Q9UFF9 (Q9UFF9 whole entry): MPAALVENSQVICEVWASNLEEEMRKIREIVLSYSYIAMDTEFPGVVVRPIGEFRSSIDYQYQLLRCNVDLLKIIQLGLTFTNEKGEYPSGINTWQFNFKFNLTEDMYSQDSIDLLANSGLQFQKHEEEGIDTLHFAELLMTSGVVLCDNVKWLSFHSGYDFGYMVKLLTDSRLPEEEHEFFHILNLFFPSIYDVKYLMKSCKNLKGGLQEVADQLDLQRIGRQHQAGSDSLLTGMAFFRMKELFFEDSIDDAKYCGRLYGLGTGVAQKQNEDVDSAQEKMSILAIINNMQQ

Variant | effect of a mutation on the interaction
N139S | with no effect

Variants of: B6
Details: with ktbl1_human KATNBL1, Q9H079

Variant | effect of a mutation on the interaction
V272I | with no effect
I142M | with no effect
C424S | with no effect
A300S | with no effect

Variants of: B7
Details: with dnal4_human DNAL4, O96015

Variant | effect of a mutation on the interaction
N33S | with no effect

Variants of: B8
Details: with cklf5_human CMTM5, Q96DZ9

Variant | effect of a mutation on the interaction
R68Q | with no effect
R116Q | with no effect
